The target in assay [1] is T1, Paclitaxel stabilized pre-polymerized microtubules (UniProt Q71U36 1-451; P07437 1-444, Paclitaxel-stabilized polymer, polymerized with GTP. One alpha/beta heterodimer represents the repeating unit. Source and isotypes are not given; mammalian (likely porcine) brain tubulin, a natural). The assay is described as follows: co-sedimentation; KIF1C-355-His (160 nM) with His-Rab6A Q72L, His-Rab33 or BSA (3.42 µM), then increasing microtubules, 2.6 mM ADP, 0.35 mM GTPγS; BRB80. Conditions: both partners purified.

Assay [2] concerns the target T1, Paclitaxel stabilized pre-polymerized …. Kind of assay: co-sedimentation; KIF1C-355-His (80 nM) with His-Rab6A Q72L (4.86 µM) or BSA (7.6 µM), then increasing microtubules, 2.6 mM AMP-PNP, 0.35 mM GTPγS; BRB80. Conditions: both partners purified.
Another assay concerns the target T2, His-Rab6A Q72L (UniProt P20340 1-208, Q72L).
T2 construct: Rab6A GTPase, GTP-hydrolysis deficient mutant; also called active His-Rab6A; source: purified as described (Aivazian et al., 2006)
The assay is described as follows: pull-down; concentration dependence: GTPγS-loaded His-Rab6A Q72L (0.58 μM) with GST-KIF1C CBD immobilized on glutathione Sepharose; quantitative fluorescent antibody immunoblot; fit with GraphPad Prism. Conditions: both partners purified. For orientation: In western blotting, separated proteins are transferred to a membrane and probed.

For the next assay, the target named is T3, myc-KIF1C-350 (human, UniProt O43896 1-350).
T3 construct: KIF1C, human, N-terminal motor domain, residues 1-350; also called myc-KIF1C motor domain; in vitro translated KIF1C motor domain; source: in vitro translated
T3 sequence (looked up): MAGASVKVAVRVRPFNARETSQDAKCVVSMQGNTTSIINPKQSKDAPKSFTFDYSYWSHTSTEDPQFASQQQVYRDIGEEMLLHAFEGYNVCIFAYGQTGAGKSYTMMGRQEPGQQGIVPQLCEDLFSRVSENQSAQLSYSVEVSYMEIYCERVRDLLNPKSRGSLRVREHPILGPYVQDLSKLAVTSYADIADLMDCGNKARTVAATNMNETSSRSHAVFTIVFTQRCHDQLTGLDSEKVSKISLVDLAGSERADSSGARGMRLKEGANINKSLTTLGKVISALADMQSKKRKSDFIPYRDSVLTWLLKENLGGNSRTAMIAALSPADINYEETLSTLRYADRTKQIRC
Kind of assay: pull-down; concentration dependence: in vitro translated myc-KIF1C-350 with GTPγS-loaded GST-Rab6A Q72L; apparent KD; fit with KaleidaGraph. Conditions: one partner purified.

B1: KIF1C-355-His (domain or fragment)
chain: MAGASVKVAVRVRPFNARETSQDAKCVVSMQGNTTSIINPKQSKDAPKSFTFDYSYWSHTSTEDPQFASQQQVYRDIGEEMLLHAFEGYNVCIFAYGQTGAGKSYTMMGRQEPGQQGIVPQLCEDLFSRVSENQSAQLSYSVEVSYMEIYCERVRDLLNPKSRGSLRVREHPILGPYVQDLSKLAVTSYADIADLMDCGNKARTVAATNMNETSSRSHAVFTIVFTQRCHDQLTGLDSEKVSKISLVDLAGSERADSSGARGMRLKEGANINKSLTTLGKVISALADMQSKKRKSDFIPYRDSVLTWLLKENLGGNSRTAMIAALSPADINYEETLSTLRYADRTKQIRNTVSVN
notes: KIF1C, human, motor domain residues 1-349; KIF5C heavy chain, murine, residues 329-334; Design follows Nitta et al., 2004 for KIF1A; also called recombinant KIF1C motor domain; purified KIF1C motor domain; source: E. coli Rosetta 2, purified (Ni-NTA, HiTrap Q FF); not shown: His6, C-terminal, kept
B1: in assay [1], the Kd came to 2100 nM and the “fold increase of KD with His-Rab6A (ADP state)” value was over 10 fold. Moreover, in assay [2], the Kd was found to be 460 nM and the “fold increase of KD with His-Rab6A (AMP-PNP state)” value was over 10 fold.

B2: GST-KIF1C CBD (domain or fragment, human, UniProt O43896 1060-1103, looked up)
chain: SYPQPPQPYPAQRPPGPRYPPYTTPPRMRRQRSAPDLKESGAAV
notes: the text calls it the C-terminal 40 amino acids; Text says 40 C-terminal residues, the legend AA 1060-1103 (44 residues); source: bacteria, purified (glutathione-Sepharose)
In the assay with His-Rab6A Q72L, B2 yielded a Kd of 900 nM.

B3: GST-Rab6A Q72L (natural protein, UniProt P20340 1-208, looked up)
chain: MSTGGDFGNPLRKFKLVFLGEQSVGKTSLITRFMYDSFDNTYQATIGIDFLSKTMYLEDRTVRLQLWDTAGLERFRSLIPSYIRDSTVAVVVYDITNVNSFQQTTKWIDDVRTERGSDVIIMLVGNKTDLADKRQVSIEEGERKAKELNVMFIETSAKAGYNVKQLFRRVAAALPGMESTQDRSREDMIDIKLEKPQEQPVSEGGCSC
notes: Rab6A GTPase, GTP-hydrolysis deficient mutant; GTPγS-loaded; also called active Rab6A hydrolysis-deficient mutant; source: purified as described (Aivazian et al., 2006)
Turning to B3, in the assay with myc-KIF1C-350, the Kd stood at 230 nM.
